# Experimental data taken from article PMC8080410 (Bioactive Materials, 2021).
# B1: E-OVA_(323-336) (peptide)
# peptide: EWEAEAEAEWEGGGQAVHAAHAEINEAGR
# B2: K-OVA_(257-264) (peptide)
# peptide: KWKAKAKAKWKGGGSIINFEKL
# Assays:
# TEM + DLS = biological target: the molecule itself; assay: TEM + DLS
# E-OVA_(323-336) = biological target: B1; assay: TEM + rheology + circular dichroism
Binder,binding result (TEM + DLS),binding result (E-OVA_(323-336))
B1,binds,–
B2,binds,binds
